Test results: US20220041738A1 (SAITAMA MEDICAL UNIVERSITY, published 2022)

T1: human ALK2 extracellular domain with C-terminal His tag (E. coli) (human, UniProt Q04771 21-123)
T1 construct: Expressed in E. coli SHuffle T7, purified to a single band of 12 kDa; also called ALK2-ECD; human ALK2-ECD; not shown: C-terminal His tag from pET-28b(+)
T1 sequence: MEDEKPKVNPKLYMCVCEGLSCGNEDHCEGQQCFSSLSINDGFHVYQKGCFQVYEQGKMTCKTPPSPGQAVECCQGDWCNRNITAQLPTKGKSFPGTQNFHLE


target: T1, human ALK2 extracellular domain with …; assay: SPR, Biacore T200; antibody captured by anti-human IgG (Fc), antigen as analyte; 1:1 binding model
Description: The dissociation constants of humanized hA2-15A-H4/L6 (IgG2) prepared in Example 11)-4, and humanized hA2-27D-H2/L2 (IgG1 LALA) and humanized hA2-27D-H3/L4 (IgG1 LALA) prepared in Example 12)-4 for the antigen (human ALK2 extracellular domain prepared in Example 14)-1) were measured using Biacore T200 (GE Healthcare Bio-Sciences Corp., Japan) by the capture method which involves capturing each antibody as a ligand onto an immobilized anti-human IgG (Fc) antibody and assaying the antigen as an analyte. Approximately 1000 RU of the anti-human IgG (Fc) antibody (Human Antibody Capture kit, GE Healthcare Bio-Sciences Corp.) was covalently bound to a sensor chip CM5 (GE Healthcare Bio-Sciences Corp.) by the amine coupling method. Similarly, this antibody was immobilized onto a reference cell. The running buffer used was HBS-EP+(10 mM HEPES (pH 7.4), 0.15 M NaCl, 3 mM EDTA, and 0.05% Surfactant P20). The antibody was added onto the anti-human IgG (Fc) antibody-immobilized chip for approximately 1 minute. Then, serially diluted solutions (0.78 to 200 nM) of the antigen were added thereto at a flow rate of 30 μl/min for 300 seconds. Subsequently, the dissociation phase was monitored for 600 seconds. A 3 M magnesium chloride solution was added thereto as a regenerating solution at a flow rate of 10 μl/min for 30 seconds. The data was analyzed using 1:1 binding models of analytical software (BIAevaluation software, version 1.0) to calculate an association rate constant ka, a dissociation rate constant kd, and a dissociation constant (KD; KD=kd/ka).

| Kd | Binder |
| --- | --- |
| 17.4 nM | humanized hA2-15A-H4/L6 (IgG2) (antibody, Human IgG2, kappa; also called humanized A2-15A-H4/L6 (IgG2); humanized A2-15A antibody (IgG2)) heavy: EVQLVESGGGLVQPGGSLRLSCAASGFTFSHYYMAWVRQAPGKGLEWVASITNSGGSINYRDSVKGRFTISRDNAKSTLYLQMNSLRAEDTATYYCTREGGENYGGYPPFAYWGQGTLVTVSSASTKGPSVFPLAPCSRSTSESTAALGCLVKDYFPEPVTVSWNSGALTSGVHTFPAVLQSSGLYSLSSVVTVPSSNFGTQTYTCNVDHKPSNTKVDKTVERKCCVECPPCPAPPVAGPSVFLFPPKPKDTLMISRTPEVTCVVVDVSHEDPEVQFNWYVDGVEVHNAKTKPREEQFNSTFRVVSVLTVVHQDWLNGKEYKCKVSNKGLPAPIEKTISKTKGQPREPQVYTLPPSREEMTKNQVSLTCLVKGFYPSDIAVEWESNGQPENNYKTTPPMLDSDGSFFLYSKLTVDKSRWQQGNVFSCSVMHEALHNHYTQKSLSLSPGK light: DIVLTQSPDSLAVSLGERATINCRANQGVSLSRYNLMHWYQQKPGQKPKLLIYRSSNLAQGIPARFSGSGSGTDFTLTISSVQADDIAVYYCQQSRESPFTFGQGTKLELKRAVAAPSVFIFPPSDEQLKSGTASVVCLLNNFYPREAKVQWKVDNALQSGNSQESVTEQDSKDSTYSLSSTLTLSKADYEKHKVYACEVTHQGLSSPVTKSFNRGEC |
| 13.6 nM | humanized hA2-27D-H2/L2 (IgG1 LALA) (antibody, also called humanized A2-27D-H2/L2 (IgG1 LALA); humanized A2-27D antibody (LALA)) heavy: not shown light: EIVLTQSPGTLSLSPGERATLSCLASSSVSYMTWYQQKPGQSPRLWIYGTSNLASGVPDRFSGSGSGTDFTLTISRLEPEDFAVYYCLHLTSYPPYTFGQGTKVEIKRAVAAPSVFIFPPSDEQLKSGTASVVCLLNNFYPREAKVQWKVDNALQSGNSQESVTEQDSKDSTYSLSSTLTLSKADYEKHKVYACEVTHQGLSSPVTKSFNRGEC |
| 13.3 nM | humanized hA2-27D-H3/L4 (IgG1 LALA) (antibody) heavy: not shown light: EIVLTQSPGTMSASPGERVTLSCLASSSVSYMTWYQQKPGASPRLWIYGTSNLASGVPDRFSGSGSGTDYTLTISRMEPEDFATYYCLHLTSYPPYTFGAGTKLELKRAVAAPSVFIFPPSDEQLKSGTASVVCLLNNFYPREAKVQWKVDNALQSGNSQESVTEQDSKDSTYSLSSTLTLSKADYEKHKVYACEVTHQGLSSPVTKSFNRGEC |
